Source: the domain aggregation screens of Martell et al. (2025)

Test: soluble fraction after stress (log2 fold change); higher = more stays soluble; pooled small domains, quantitative proteomics
Settings: stress: 50 degC
In short: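 Pooled custom libraries of small protein domains were each held under stress at 50°C. The read-out, high-throughput quantitative proteomics, tracked how much of each protein stayed soluble. This is reported as a base-two log fold change used to indicate aggregation propensity. Higher values mean more protein remains in solution.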

Sequence | soluble fraction (log2)
HMTGAEGKLARYLLTVPSGEPLRLSATDLAKRLGISRASLYRAFQALEDARLIRREGKSMYVLDPAGLEGV | -0.289
HMTGENWAERSRQLAAAGLLVLGKEAQEKIASLPNLIPLIEAAAASDTRLLNAQTIDELLSFVPTEETI | -0.05
HMTGESVPAPLSGTIFKILVAPGEQVEEGQTVIILEAMKMETEISAPRSGVVGAINIKEGDSVQVGQSLFT | 0.0706
HMTGIKISVDRLQIGNYVKLPLNWKDHPFLFSSFAIKSQEEIDLIRRLGLKQVIMFPDKSSMPPKPV | -1.33
HMTGLSNFEFNQIKLDLMHELTQTPLRLTDLVNRITSFENEKTITVIRFLVDEGILLLKDDTLSVAKID | -0.542
HMTGMEAAEFGKRIMKLRKQKGMTQSKLAEQINVSNKAISRWETGEGFPEITLLKPLAKALGTTVDELFGE | -0.204
HMTGMEKFLTIPSIRESTAAFEREYLIHYLDENAWQVSKTAAAIGIERTTLYKKMKQLGIVPIEE | -2.07
HMTGNWRQMHKVKSKETIYGIAKEYGITVDELTKANPGMEAPGYTLKKGDYIFIPYATADANV | 0.399
HMTGQEGLIGAHGVALTRLSNEEGEVKVQGEIWQARSDQEVAKGASIEVVHVDGLVLTVRPQH | -0.0984
HMTGQLTEEELKQRQERAMSNPEIQGILSDPVMRQVLQDMSTDPKAAAEHQRNPTIMAKIQKLINAGIVQV | 0.11
HMTGSETLQDIFAHLEAGTVRTALSLIPRLDAVEYEQNRQRIAELAGVRPSALDDLRKQAKREEN | 0.519
HMTGTKEQQVVMLNNILQKQLQAFELQGKRDYPMVTMKNMYNTLSKMVENAGLQTVESYFVDPIKGQQM | -0.0334
HMTGVEAIERYLASGVIPGVGPVLAKRLVERFGARTLEVIEDSPRRLTQVPGIGRQKARQIHQALKAQRE | -0.25
HMTGYVMIRVDGLSLEKFLNMAAEAGVRVSDVRRASYTVLYAVVSPRDLKKLQSVAPEKYTVTVR | -0.664
HMTHANAALTPRHRLKVARLVVDEGWPVSEVAARFQVSWPTVKRWADRYRAGQSMQDRSSRP | -1.13
HMTHEAEDLNALRMMVRDPIFSSDEPDLQQLRGAVAHAPQFVDRFKELYNDYQRLAEFVQNSL | -0.769
HMTHFRTDERRREILSTIEADGRVSVSEIASRFDVSPVTIRSDLNYLAIQGKLKRVRGGAVLLDH | -0.76
HMTIDNPESQKIMDMVPFFFQSRNYDEAIEALTYVIEQEPQFSEAYNKRATFYFMMGDLENSMKDIEITLA | -0.401
HMTIGIGKSLDFNTSGEKAYRIYNFKGAYVGTFKASDMTSLKNEVQKSNVKAGAYMVRSLDGHVNRLIEIK | -0.681
HMTIGKIVNIIEGSYANVRSAPDQNSEPIGRAYPGDAFLVDPLGSSGDWVKVTYEGQSGFIFQAYISV | -1.29
HMTIGKRIKRRRIELKMSIDSLARTIGKDRSTVYRYESGAIDKVSSDVLAKLATALNTTPAYLIGL | -3.27
HMTIKNHIDEILKKEPFILENIKNGLINISALARQIEPQLSRKVGKKLNVNAIIMTIKRMEIDQLNK | -0.989
HMTIPNGTVVNGTVLEAREAGAYLVRVAGQTLTAQANLPLLVGQHFRAVWDSSGDIPVLRLSDAEQALLGK | 0.119
HMTIPRLPFAFAKRFGIVLDNRPSGFVAAHKEGLLPHVLLEVQRFLGDAYTLEVVSDDDFERILGQVYQT | -3.27
HMTIPSYAEAVRYVRRQPRINTSTLADGLGIRWSLALDYLERMARSGVVGAIEDDGWWPVAR | -0.71

Sequence | soluble fraction (log2)
HMTIRIPEEEYLTRAKRAAQMTAERGLDALFLFGSEGDFQNVRYFTSVTPIWERLGVVITASGKAAMLTGP | -0.0521
HMTIRPEDVELVPAEDGYMQGDVVSNIFKGVHYELEVKANGYDWMVHTTKYVEVGSHVGIKVIPFNIQV | -0.0208
HMTISPYTKDDFLKGTKPFEDVYAHKADPFVHDRALEQMTIWAKSVGVNGFKKLYKAYIDSLRIKNKEI | 0.0524
HMTKAGVDAWTRGDYAAAVKEWQAQAAKGDADAIFNLGQAFKLGKGVPQDLIKAEQLFGQAAA | 0.154
HMTKDEIIIQSIIDAAKKLMQQYGLNKTTMEDIAKEAGKGKSTLYHYFKSKEEIFDQVINQEID | -0.0722
HMTKEEFLDEIKKELGFMPYEEVIKAEKYFESYFNGSEADEKVIERFGSPKYAAQNYYRTHVAN | -0.0965
HMTKEEFLYELKKELSALDSAEATAYNLRYYSDYIDAEIAKGRSEQEVLDELGNPRWLVNSIKESG | 0.122
HMTKGDRIKARREELGLTQTDLAEAISSTKQNIYKYENNIISNIPSDKVEAIAEVLKISPAYLMGWGDE | 0.0302
HMTKGFSIQDISLSKSTMTFLQQNKITDLASLLSMSKSQIEGMKGFKPKMIQEIEKNLDKVGLVLAQD | 0.176
HMTKGVKVEIGTEEASVDLYVVMEYGTPIQKAAYDAQESVRKAIETMTNLHVVRVDVHVQGVSF | -0.134
HMTKGVWHTVKKGENLYRISLYYEVPQQEIKKANKIETENIVVGQKLFIPNTTKKSPIFALTP | -1.49
HMTKIDYSINQIYSLRNIENITIVLKDKRSFTGKILKIYWQNGSKIILFTTETRNYKFKEYEISEIYKS | -0.268
HMTKIEYTEQEFNDFIQAYKNNRKMFPEDYIVKTQVVFINKGFSKSQADMIIAQIETRLRLQGE | -0.421
HMTKIKAIFFDIDGTIRSFKTKTIPENTANTLKKLKEQGIKIFIATGRAPFHTTFLNDLLDFKFDGYITIN | -0.282
HMTKKSLFNQYLDDQKRLDIVTLQKAELVDLHKLADELNIDQYNQLKKNELIFKILQSNPSE | -0.135
HMTKNEFLQGLKEELEGRVTHSAIQENIRYYDDYISQEVLKGSTEEEVTESLGGPRIIARTIVDAAYD | -0.0458
HMTKPLHELLSQREFQVFTQLAAGRSVGEIAQQLSLSSNTVSTYRARILEKTGTRNDVELALYAIRR | -1.52
HMTKPTLMEVEIKGAIQNPGVYTLKRNSSISKLIKMSGPLLENADTSSISFTHILQDKDVVVIPEIK | -0.262
HMTKQEYLNQLKNELVKQGVADAEDVVTEYEQHFAFKLADGFGEEEIAKKLGDPAAIASQFVG | 0.293
HMTKQMELLAQGAAKLSVDLNQRQLDQLQTYYRELVDWNQRMNLTAITQYEEVQVKHFLDSL | -0.0986
HMTKRKNTEFRQQQIIEAAAKLIFKYGSEHLTVKRIAAQVGISEAAIYRHFTSKKSILSFLLSHIEE | -0.423
HMTKRTVKSVARKIADFNRERHRMPTYEEMLTLLAVRSKSVVHFWMNKLLQEGILEKDESGHLTFV | -0.124
HMTKSSAYLSAEKLINKKQYSDAIVKLNDALVTDSKNADIYNYLGFSHRKLGKMEDAAFFYNKALE | 0.219
HMTLDDSFYQKADEIIANHTKEERSLIPIIQDIQAEYRYLPPELLTYVAKEIGITDARAYSVASFYENFS | -0.446
HMTLDEDYFYYTLKAKEGYYRLYKKLGVDRKIIDSLNPNLKEMGLQVGMVIRVPKSQTSDLSVKNSLLVE | -1.4
